In the supplement of paper PMC12636428:

System: Saccharomyces cerevisiae
Assay: transcriptional activation domain activity (GFP:mCherry ratio, weighted mean of sorted bins, harmonized to initial dataset scale) (arbitrary fluorescence ratio units); higher = stronger transcriptional activation
Details: beta-estradiol 1 µM; induction time 4 h
Summary of the method: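 Each value is an activation activity: the read-weighted mean of bin median fluorescence, averaged across barcodes, then mapped linearly to the initial dataset scale. The tiles, fused to an estradiol-inducible synthetic transcription factor, sat at the yeast URA3 locus in GFP-reporter diploids. Cells spent 4 hours at 30 °C in SC with 1 uM beta-estradiol before sorting into 8 GFP:mCherry bins, and tiles below 50 reads were removed.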

| Sequence | transcriptional activation domain activity |
| --- | --- |
| TNAENSSQPSLAQWAKGREGVLMISSDVISNVQISIGKSRLASLLISLCLQRM | 47300 |
| LKEKSLRILILNGLVRLIWTYLYRCQESPSTTTTKLENLLKYLFPPNRTSVYP | 44900 |
| MAEDSDPSADGGLPMPYSCYECRNRKLKCDRRKDGCSRCAQAGGKCHYPTSRK | 48800 |
| EHPARARVDKNRTKTSAREVHPARAAREEHPARAYADKNRTKTSARDVHPAGA | 40400 |
| NPTDTILILATSLPTVSTFFINYLLLQGLIGSAIELTQAYRLLWNIVIVRWFA | 54500 |
| HLQTITINSEGDCGHCLSKYGILVIPTLERVVLVSREGRYPWSSWYLELRVFS | 32100 |
| PLPPSSPHWLVWIHAQDVVTMRMPSRIRPLLQELLEVIISVIQPSLHSAPQSG | 49500 |
| SSSKSAADVAAGEGKKTEKAGEKKEGTAAAAEKKKIEEKPAREEKKEEEKVPV | 24300 |
| MFVHWAAVFCLFFFCLAIIHPYLPVAFFFCSIYYKPFFLRLPRFLFGFWFFFS | 47700 |
| DKQLDYEFIDKSGIIPSDNQSHPRISNIHDNAIDMVTLKNGEEVAISWYDISH | 59800 |
| MMSMFWGWHGQRNGVFSGVLGFGILLVTWFFFFFKFSPHILLIISVYGHFGFF | 81500 |
| QDNLNIEDKEEMSPNIEIKNEQNMTDSNDILGVFDQLDAQLFGKYLPLNYPSE | 81700 |
| SQKKHCELCKTAFRFTKLYSPDMPKHLPFHIFVHHMTRYLLRNFLVWLRAALV | 43000 |
| MYPFLFFLSFLLFSSLTFLFSLLSFEFKFFFTFSSSFFFFCLTLCFFCQSFFF | 36400 |
| CIIFPHPFFSYSFFSFSPLFFFFFPSFLSFLSFLPSFLFFFSIVTPSSSSSTY | 55100 |
| VCGAHCGYILGHINIFQPINWVLVQSSKVFPIDYVLFLLLVLFFFSASVVGLA | 21400 |
| EEEKPKEEKPKEEKPEEEKPEEQKPEEEKPKEKPEEQKPEAPAPTPAPEPAPE | 23200 |
| MADEEGASPRELILEACRRNNTSLLEETLADLASSASKAKQDPTGYVAKTLNE | 42600 |
| PAPKKRAPRKRKANAATVEGEAEDNEAEGAAAAAPPKKRARTRKAAAAAAEPS | 41700 |
| ITLYPPNPYTNEPVPIRPISYLHLSGLLNMYVIRRLRRENWIRIFFRILFPFF | 26700 |
| SSDEEEEPRPKGKGKGKAAVVKAKPKPVAEKGNNAGGKRKRDADSEADGGAAK | 44000 |

| Sequence | transcriptional activation domain activity |
| --- | --- |
| VVGISCCFLCMIVILLYFFPLLLFSSLRPLIYLVELLPLTCHIALGGSLYLTL | 77600 |
| PFPLPLLLPCPLPLLFPLSFPLLLLLPFLLPLLFTLSFTLLFMLSFPLLFMLS | 47900 |
| LHFFLAFIFLLSAYFHVRGRDLTYYGVWPSMVVWGLDRFLRLLRIGVFNFRYI | 42000 |
| DHSDKIDKKRKDEDDSKRSKSDRKSKRDEERFSDSDKGARLDKDHSKSSRSKS | 43500 |
| FIDAAGKGGELRWNPHNKRYHLVGAEEGGKEDALSAPNKPTKPNPVLVCIYGQ | 69000 |
| MSFKFFFCLLIPSFSLFKITYAWSYLMILEVVFSPFFSQVVVFVLFILHHFYH | 53000 |
| NSLYLLPTAMTGEKPVADPLTLIRYILVWFPHIWCVICIHCHWPYFLFLNLTD | 78400 |
| DPIRYLSTMDLGYCVGDKIIGSVLCYKQPIVLLILMYFTDQILFFLDTYLWYI | 40600 |
| LRGGYTCQLNGTPKNPDLQVWLQLNLIAYFSFLDTRACDGKTASITGSAEMPF | 51900 |
| EEDSKVSVDVDRPAKRGRGRPPKPKDPNAPPPKPKSGRGRGRPPKAKPVEVAG | 39800 |
| VQRYLCQYQPQITLGFMIFTDMIFFFLDTYLCYVLLNTIFSIARSFYIGSSIW | 56700 |
| WIKWTFLFARYFPLLAGLCGRVIDSIVLYRNPIPIPLNALRIWYICQVLILHL | 78200 |
| HSMPSLATICGVCFIVDVYCIMRISLLHSYWIPMRRTLPLLAFPVVSFIFLFF | 79400 |
| RETDAWACGVVLYALCARRLPFGEGAARVEGESGGRIGREGGAREGAAARRHW | 32400 |
| MLCIRYLIYFLLLGESLVGSFLPPFTIYISLFFSSSIPCSTWVSFPLLHHTYL | 35900 |
| VLVVLCLRFFIFGIFGYILGFWMQHLLPYTPLSLSFMCLLFCLSFHLDISPSP | 45600 |
| SSTDPTVEPDAPGGSEAEEPAKSETKESPAKKKVVEEEEEEEQKKAEPNGSSS | 30700 |
| AWKRVTALLGPVVRLKADIVEIFERVMIIYFRSLDLEEKPITAGILGTVNKWN | 48300 |
| LYECLKYMLFTFAGSTHTNYMAYLLETIINLELESSPGLKEALLLCLLINLTG | 48700 |
| GSVGDELVCVVKRARPIAPSSASNAIKVRRGDVRRAVIVRTKKAVRRPDGRLI | 29900 |
| RNVYLSRFWYLSFYSGNQLRRDLNVIVGVGKNWNLPSWWAPILRYIAAPILSI | 75600 |

| Sequence | transcriptional activation domain activity |
| --- | --- |
| RWIRVRKHMVLAATLVEPFTESVVLSIICASSLKYLFGVWLWISICVHFALWA | 48100 |
| MPTTSHSLFLRYVFLFVAWLVFREVFALMGFFLLLIFLIPKIVKVPFFFFFFL | 55000 |
| HSITNFELVEDAPHQVGFSTPQMTAKQLMESVSELDLPPLTLDEPPQAIKFNL | 75900 |
| CFSKCLDGHTLLLCTLYFLIINQKLLYCYVIVFFFWIWLSISLSYICVSELYY | 57100 |
| PFFSLDNIMATFDTSTGKLRIWGIRAKPRFVWFCSKEHLLPCMNVKMIRYNSI | 64600 |
| MLQQVPRVCIISIFWNISALWAAKRFEPMVSAYSLLSNVPYVLRLVCSWQPTE | 32200 |
| DGSIMEINGIPLSMLGETGSVKFQSLFANTSNSNDYNNNRTLLDASNDISIPS | 61900 |
| KKLQNDILRPVDWIMYYYFASHIPITVLFDLQAIYPTNWVPQLLLDINAQYIN | 37500 |
| GIMILCCTLVVLTRLMGHRILPYTYFTSCLLMQIDFILGMIWDMDPFKVRRFC | 44600 |
| NIFVLHWLPSLSIASLFHTSSSSSPLLAQFFALFRSFFLSIFLFSIVYILLLF | 72200 |
| MAMVRCMDLYNLDGNGMGKFYTWQFFPFFRFWFLPVCMLLLPFVLVSCLAFFI | 58400 |
| NCVNLSFQLLFGELVVFLISLYMSVLYGLLYMFFVAQLPPEVRLIPMMCSCWF | 59700 |
| LHAGAAADDARTGGGGGGGTGQGRAEGRDRGAEPGAVRGGEPHGRGRAEAGAH | 8730 |
| YHVQQSNIQLYDNDQVHIFLRKHFLYWLEALSLIGRLYEGVLALKILESILTL | 61500 |
| VLHVLILHLPCCPSPNFLLAPDTTLPLSTLLWYEFSRTLFPVLLFYLPAFLIS | 72100 |
| VALACLLTVLPFLVVLGTFILSLTIYTFFLDRSIMVAFFHPFLHPFFFFSFFV | 25400 |
| MSIPPRLFYITFLLCFFNLLAYFHSLLFLSFNFPLQYLFTVNSVMHLVVSLPG | 53900 |
| TCRHSSPHVWWLIFGVLCIMYMMVLEVLLLGFVVLVLAPLVFIFWNLFLICIG | 52700 |
| VHVNDMVGFKFMSDKHEIFSKVLLTDVLKGTLAHQWLGYNVLFSNGSEWHFFR | 59100 |
